Measurements taken from article PMC12159149.

Molecular target: geCHO.sE2.7 (secreted HCV E2 ectodomain produced in glycoengineered CHO line 7) (hepatitis C virus, genotype 1a (H77C))
Assay: ELISA

Substance: CD81 large extracellular loop (LEL)-Fc fusion
- OD at 450 nm at the highest concentration of CD81-LEL-Fc (2.8 μM): 0.4 OD
